Experimental data from article PMC7082078 (Cell reports, 2020).

Legend:
Assay in all cases: AUC
[1] = molecular target: Xenopus pcdh8.1 full ectodomain (EC1–EC6) (Xenopus)
[2] = molecular target: Xenopus pcdh8.2 (PAPC) full ectodomain (EC1–EC6) (Xenopus)
[3] = molecular target: human pcdh7 EC1–EC4 fragment (human)
[4] = molecular target: human pcdh8 EC5–EC6 fragment (human)
[5] = molecular target: human pcdh9 EC1–EC4 fragment (human)
[6] = molecular target: human pcdh10 EC1–EC3 fragment (human)
[7] = molecular target: human pcdh10 EC1–EC4 fragment (human)
[8] = molecular target: human pcdh10 EC5–EC6 fragment (human)
[9] = molecular target: human pcdh10 full ectodomain (EC1–EC6) (human)
[10] = molecular target: human pcdh11Y full ectodomain (EC1–EC7) (human)
[11] = molecular target: human pcdh12 full ectodomain fragment (EC1–EC6) (human)
[12] = molecular target: human pcdh17 full ectodomain (EC1–EC6) (human)
[13] = molecular target: human pcdh18 full ectodomain (EC1–EC6) (human)
[14] = molecular target: mouse pcdh7 EC1–EC4 fragment (mouse)
[15] = molecular target: mouse pcdh7 full ectodomain (EC1–EC7) (mouse)
AUC = molecular target: the molecule itself

Xenopus pcdh8.1 full ectodomain (EC1–EC6) (domain or fragment)
Kd [1]: 3.5 µM
stoichiometry N [1]: 2

Xenopus pcdh8.2 (PAPC) full ectodomain (EC1–EC6) (domain or fragment)
stoichiometry N [2]: 2

human pcdh7 EC1–EC4 fragment (domain or fragment)
Kd [3]: 2.7 µM
stoichiometry N [3]: 2

human pcdh8 EC5–EC6 fragment (domain or fragment)
Kd [4]: > 1000 µM

human pcdh9 EC1–EC4 fragment (domain or fragment)
Kd [5]: 2 µM
stoichiometry N [5]: 2

human pcdh10 EC1–EC3 fragment (domain or fragment)
Kd [6]: 280 µM
stoichiometry N [6]: 2

human pcdh10 EC1–EC4 fragment (domain or fragment)
Kd [7]: 0.68 µM
stoichiometry N [7]: 2

human pcdh10 EC5–EC6 fragment (domain or fragment)
Kd [8]: > 1000 µM

human pcdh10 full ectodomain (EC1–EC6) (domain or fragment)
Kd [9]: 3.6 µM
stoichiometry N [9]: 2

human pcdh11Y full ectodomain (EC1–EC7) (domain or fragment)
Kd [10]: 7.8 µM
stoichiometry N [10]: 2

human pcdh12 full ectodomain fragment (EC1–EC6) (domain or fragment)
stoichiometry N [11]: 2

human pcdh17 full ectodomain (EC1–EC6) (domain or fragment)
Kd [12]: 4.8 µM
stoichiometry N [12]: 2

human pcdh18 full ectodomain (EC1–EC6) (domain or fragment)
Kd [13]: 2.7 µM
stoichiometry N [13]: 2

mouse pcdh7 EC1–EC4 fragment (domain or fragment)
Kd [14]: 4.1 µM
stoichiometry N [14]: 2

mouse pcdh7 full ectodomain (EC1–EC7) (domain or fragment)
Kd [15]: 8.2 µM
stoichiometry N [15]: 2

B1: human pcdh19 full ectodomain (EC1–EC6) (domain or fragment)
chain: LINLKYSVEEEQRAGTVIANVAKDAREAGFALDPRQASAFRVVSNSAPHLVDINPSSGLLVTKQKIDRDLLCRQSPKCIISLEVMSSSMEICVIKVEIKDLNDNAPSFPAAQIELEISEAASPGTRIPLDSAYDPDSGSFGVQTYELTPNELFGLEIKTRGDGSRFAELVVEKSLDRETQSHYSFRITALDGGDPPRLGTVGLSIKVTDSNDNNPVFSESTYAVSVPENSPPNTPVIRLNASDPDEGTNGQVVYSFYGYVNDRTRELFQIDPHSGLVTVTGALDYEEGHVYELDVQAKDLGPNSIPAHCKVTVSVLDTNDNPPVINLLSVNSELVEVSESAPPGYVIALVRVSDRDSGLNGRVQCRLLGNVPFRLQEYESFSTILVDGRLDREQHDQYNLTIQARDGGVPMLQSAKSFTVLITDENDNHPHFSKPYYQVIVQENNTPGAYLLSVSARDPDLGLNGSVSYQIVPSQVRDMPVFTYVSINPNSGDIYALRSFNHEQTKAFEFKVLAKDGGLPSLQSNATVRVIILDVNDNTPVITAPPLINGTAEVYIPRNSGIGYLVTVVKAEDYDEGENGRVTYDMTEGDRGFFEIDQVNGEVRTTRTFGESSKSSYELIVVAHDHGKTSLSASALVLIYLSPALDAQESMGSVNLS
Kd (AUC): 0.48 µM
stoichiometry N (AUC): 2

B2: human pcdh1 full ectodomain (EC1–EC7) (domain or fragment)
chain: TRVVYKVPEEQPPNTLIGSLAADYGFPDVGHLYKLEVGAPYLRVDGKTGDIFTTETSIDREGLRECQNQLPGDPCILEFEVSITDLVQNGSPRLLEGQIEVQDINDNTPNFASPVITLAIPENTNIGSLFPIPLASDRDAGPNGVASYELQAGPEAQELFGLQVAEDQEEKQPQLIVMGNLDRERWDSYDLTIKVQDGGSPPRASSALLRVTVLDTNDNAPKFERPSYEAELSENSPIGHSVIQVKANDSDQGANAEIEYTFHQAPEVVRRLLRLDRNTGLITVQGPVDREDLSTLRFSVLAKDRGTNPKSARAQVVVTVKDMNDNAPTIEIRGIGLVTHQDGMANISEDVAEETAVALVQVSDRDEGENAAVTCVVAGDVPFQLRQASETGSDSKKKYFLQTTTPLDYEKVKDYTIEIVAVDSGNPPLSSTNSLKVQVVDVNDNAPVFTQSVTEVAFPENNKPGEVIAEITASDADSGSNAELVYSLEPEPAAKGLFTISPETGEIQVKTSLDREQRESYELKVVAADRGSPSLQGTATVLVNVLDCNDNDPKFMLSGYNFSVMENMPALSPVGMVTVIDGDKGENAQVQLSVEQDNGDFVIQNGTGTILSSLSFDREQQSTYTFQLKAVDGGVPPRSAYVGVTINVLDENDNAPYITAPSNTSHKLLTPQTRLGETVSQVAAEDFDSGVNAELIYSIAGGNPYGLFQIGSHSGAITLEKEIERRHHGLHRLVVKVSDRGKPPRYGTALVHLYVNETLANRTLLETLLGHSLDTPLDIDIAGDPEYERSKQRGN
Kd (AUC): 1.2 µM
stoichiometry N (AUC): 2

B3: human pcdh9 full ectodomain (EC1–EC7) (domain or fragment)
chain: QELIYTIREELPENVPIGNIPKDLNISHINAATGTSASLVYRLVSKAGDAPLVKVSSSTGEIFTTSNRIDREKLCAGASYAEENECFFELEVVILPNDFFRLIKIKIIVKDTNDNAPMFPSPVINISIPENTLINSRFPIPSATDPDTGFNGVQHYELLNGQSVFGLDIVETPEGEKWPQLIVQQNLDREQKDTYVMKIKVEDGGTPQKSSTAILQVTVSDVNDNRPVFKEGQVEVHIPENAPVGTSVIQLHATDADIGSNAEIRYIFGAQVAPATKRLFALNNTTGLITVQRSLDREETAIHKVTVLASDGSSTPARATVTINVTDVNDNPPNIDLRYIISPINGTVYLSEKDPVNTKIALITVSDKDTDVNGKVICFIEREVPFHLKAVYDNQYLLETSSLLDYEGTKEFSFKIVASDSGKPSLNQTALVRVKLEDENDNPPIFNQPVIELSVSENNRRGLYLTTISATDEDSGKNADIVYQLGPNASFFDLDRKTGVLTASRVFDREEQERFIFTVTARDNGTPPLQSQAAVIVTVLDENDNSPKFTHNHFQFFVSENLPKYSTVGVITVTDADAGENKAVTLSILNDNDNFVLDPYSGVIKSNVSFDREQQSSYTFDVKATDGGQPPRSSTAKVTINVMDVNDNSPVVISPPSNTSFKLVPLSAIPGSVVAEVFAVDVDTGMNAELKYTIVSGNNKGLFRIDPVTGNITLEEKPAPTDVGLHRLVVNISDLGYPKSLHTLVLVFLYVNDTAGNASYIYDLIRRTMETPLDRNIGDSSQPYQNEDYLT
Kd (AUC): 2.03 µM
stoichiometry N (AUC): 2

B4: human pcdh1 EC1–EC4 fragment (domain or fragment)
chain: TRVVYKVPEEQPPNTLIGSLAADYGFPDVGHLYKLEVGAPYLRVDGKTGDIFTTETSIDREGLRECQNQLPGDPCILEFEVSITDLVQNGSPRLLEGQIEVQDINDNTPNFASPVITLAIPENTNIGSLFPIPLASDRDAGPNGVASYELQAGPEAQELFGLQVAEDQEEKQPQLIVMGNLDRERWDSYDLTIKVQDGGSPPRASSALLRVTVLDTNDNAPKFERPSYEAELSENSPIGHSVIQVKANDSDQGANAEIEYTFHQAPEVVRRLLRLDRNTGLITVQGPVDREDLSTLRFSVLAKDRGTNPKSARAQVVVTVKDMNDNAPTIEIRGIGLVTHQDGMANISEDVAEETAVALVQVSDRDEGENAAVTCVVAGDVPFQLRQASETGSDSKKKYFLQTTTPLDYEKVKDYTIEIVAVDSGNPPLSSTNSLKVQVVD
Kd (AUC): 0.53 µM
stoichiometry N (AUC): 2
